One block for each binder: values may come before it.
B3: Taf11, subunit of Komagataella phaffii TFIID (natural protein, UniProt F2QRB1 1-281, looked up)
chain: MSPKPESEIDQGPSVSVTSAEEKSRLEEVKDVHEDPKAEEGLVSAPQGSDTLGQEGKTEKEQNEAKGDIEEESEESAEEDEEEEEEIVDDQISYALNYLFQDIHEKIRLRETQRDTTQDEFELSRQEKVGLLLENFDQDQMTRYEFFRRANVNKSVAKRIVQSVLGQSINNNVALLVSTVSKMFVGEMVEKAKEVQSRRQKAQILEQISQRKAAIKNIRKRDLDESVVDQIMNSKRIRIPKDEPLSPEDIREAWRLYQLETNVLPSNQWRRQGGGDGNMFR
notes: Taf11, TFIID subunit of the yeast Komagataella phaffii (formerly Pichia pastoris); histone-fold domain modelled in the cryo-EM map; source: endogenous, K. phaffii nuclear extract; co-purified in TFIID by SBP-tagged Taf2 (streptavidin beads, sucrose gradient)

Tests used:
[1] = target: B3; assay: cross-linking; 50 µg purified TFIID, 3 mM BS3, 2 h at 25 °C; trypsin, SCX fractionation, Orbitrap Fusion MS; pLink and Nexus, 5% FDR; settings: both partners purified
[2] = target: T1, Taf5, subunit of Komagataella phaffii TFIID (Komagataella phaffii, UniProt F2QWD3 1-722); assay: as above; settings: both partners purified
T1 construct: Taf5, TFIID subunit of the yeast Komagataella phaffii (formerly Pichia pastoris); WD40 repeat and NTD (residues 99–243) modelled in the cryo-EM map; two copies in holo-TFIID; source: endogenous, K. phaffii nuclear extract; co-purified in TFIID by SBP-tagged Taf2 (streptavidin beads, sucrose gradient)
T1 sequence (looked up): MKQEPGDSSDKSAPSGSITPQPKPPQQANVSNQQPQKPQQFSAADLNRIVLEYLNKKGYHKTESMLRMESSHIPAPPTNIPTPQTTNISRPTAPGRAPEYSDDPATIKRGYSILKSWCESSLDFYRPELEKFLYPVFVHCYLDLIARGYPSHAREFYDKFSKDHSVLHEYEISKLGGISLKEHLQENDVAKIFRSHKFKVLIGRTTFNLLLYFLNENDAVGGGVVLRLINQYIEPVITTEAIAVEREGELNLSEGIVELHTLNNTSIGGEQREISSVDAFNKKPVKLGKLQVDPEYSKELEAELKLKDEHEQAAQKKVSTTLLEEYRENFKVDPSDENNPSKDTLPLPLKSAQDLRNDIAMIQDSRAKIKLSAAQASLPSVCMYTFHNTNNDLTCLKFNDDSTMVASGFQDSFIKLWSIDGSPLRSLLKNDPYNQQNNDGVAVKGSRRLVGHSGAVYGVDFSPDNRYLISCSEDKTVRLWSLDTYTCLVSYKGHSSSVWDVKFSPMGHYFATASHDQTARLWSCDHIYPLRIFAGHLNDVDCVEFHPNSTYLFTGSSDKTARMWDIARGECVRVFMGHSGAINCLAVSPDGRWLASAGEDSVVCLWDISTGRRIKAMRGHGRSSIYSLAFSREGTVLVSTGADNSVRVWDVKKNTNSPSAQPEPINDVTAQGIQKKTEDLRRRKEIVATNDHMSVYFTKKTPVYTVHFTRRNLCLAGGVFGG

[3] = target: T2, Taf8, subunit of Komagataella phaffii TFIID (Komagataella phaffii, UniProt F2QT15 1-517); assay: cryo-EM structure; purified TFIID (0.4 µM) with two-fold excess of TFIIA and 2.5–3-fold excess of pGAP promoter DNA, cross-linked with 0.1% glutaraldehyde; focused refinement of the lobes (Taf2 lobe 4.5 Å, Twin lobe 4.8 Å); homology models docked; settings: both partners purified
T2 construct: Taf8, TFIID subunit of the yeast Komagataella phaffii (formerly Pichia pastoris); putative helices placed in the cryo-EM map; also called KpTaf8; source: endogenous, K. phaffii nuclear extract; co-purified in TFIID by SBP-tagged Taf2 (streptavidin beads, sucrose gradient)
T2 sequence (looked up): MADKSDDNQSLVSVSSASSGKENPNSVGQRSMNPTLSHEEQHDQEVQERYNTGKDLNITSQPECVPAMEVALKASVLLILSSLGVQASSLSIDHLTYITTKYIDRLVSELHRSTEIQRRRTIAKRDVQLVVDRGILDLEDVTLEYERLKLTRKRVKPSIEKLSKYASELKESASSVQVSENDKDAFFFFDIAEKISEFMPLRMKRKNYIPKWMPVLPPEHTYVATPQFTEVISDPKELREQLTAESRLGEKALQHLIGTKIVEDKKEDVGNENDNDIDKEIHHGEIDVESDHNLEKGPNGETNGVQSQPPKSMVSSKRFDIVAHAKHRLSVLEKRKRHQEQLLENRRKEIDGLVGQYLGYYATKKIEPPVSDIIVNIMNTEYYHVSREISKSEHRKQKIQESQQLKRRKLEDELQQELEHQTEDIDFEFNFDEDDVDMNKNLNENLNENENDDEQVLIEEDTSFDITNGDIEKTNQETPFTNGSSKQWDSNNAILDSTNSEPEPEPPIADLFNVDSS

[4] = target: T3, Taf2 with C-terminal streptavidin-binding peptide tag, subunit of Komagataella phaffii TFIID (Komagataella phaffii, UniProt F2QRH9 1-1571); assay: affinity purification with mass spectrometry; TFIID purified from K. phaffii nuclear extract by the SBP tag at the C-terminus of Taf2 (streptavidin beads, 250 mM potassium acetate, elution with 10 mM biotin, 10–30% sucrose gradient); SDS-PAGE and mass spectrometry of the purified complex; settings: partners not purified
T3 construct: Taf2, TFIID subunit of the yeast Komagataella phaffii (formerly Pichia pastoris); residues 36 to 1194 modelled in the cryo-EM map; bait of the purification; also called SBP-tagged Taf2; source: K. phaffii strain with SBP-tagged Taf2, nuclear extract; purified (streptavidin beads, biotin elution, sucrose gradient)

[5] = target: T4, Taf12, subunit of Komagataella phaffii TFIID (Komagataella phaffii, UniProt F2QSK7 1-609); assay: cross-linking; 50 µg purified TFIID, 3 mM BS3, 2 h at 25 °C; trypsin, SCX fractionation, Orbitrap Fusion MS; pLink and Nexus, 5% FDR; settings: both partners purified
T4 construct: Taf12, TFIID subunit of the yeast Komagataella phaffii (formerly Pichia pastoris); histone-fold domain modelled in the cryo-EM map; source: endogenous, K. phaffii nuclear extract; co-purified in TFIID by SBP-tagged Taf2 (streptavidin beads, sucrose gradient)
T4 sequence (looked up): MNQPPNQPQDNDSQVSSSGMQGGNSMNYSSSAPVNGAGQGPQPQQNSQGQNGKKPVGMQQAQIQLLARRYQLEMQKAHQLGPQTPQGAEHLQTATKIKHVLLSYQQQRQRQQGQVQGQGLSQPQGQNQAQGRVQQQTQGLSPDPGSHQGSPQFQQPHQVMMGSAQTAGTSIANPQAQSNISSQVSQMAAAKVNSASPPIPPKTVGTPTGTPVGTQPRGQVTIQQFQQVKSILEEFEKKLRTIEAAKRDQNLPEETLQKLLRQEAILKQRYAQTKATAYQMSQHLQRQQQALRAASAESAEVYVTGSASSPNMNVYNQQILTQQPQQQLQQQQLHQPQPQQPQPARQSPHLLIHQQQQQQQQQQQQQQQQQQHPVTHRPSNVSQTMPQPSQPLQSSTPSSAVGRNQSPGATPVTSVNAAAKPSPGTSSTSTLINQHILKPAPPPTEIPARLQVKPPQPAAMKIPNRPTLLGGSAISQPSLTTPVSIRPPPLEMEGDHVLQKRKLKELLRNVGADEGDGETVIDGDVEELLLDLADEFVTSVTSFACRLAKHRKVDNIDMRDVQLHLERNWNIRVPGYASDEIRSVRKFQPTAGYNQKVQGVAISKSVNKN

[6] = target: T5, Taf4, subunit of Komagataella phaffii TFIID (Komagataella phaffii, UniProt F2QWX2 1-411); assay: as above; settings: both partners purified
T5 construct: Taf4, TFIID subunit of the yeast Komagataella phaffii (formerly Pichia pastoris); histone-fold domain modelled in the cryo-EM map; source: endogenous, K. phaffii nuclear extract; co-purified in TFIID by SBP-tagged Taf2 (streptavidin beads, sucrose gradient)
T5 sequence (looked up): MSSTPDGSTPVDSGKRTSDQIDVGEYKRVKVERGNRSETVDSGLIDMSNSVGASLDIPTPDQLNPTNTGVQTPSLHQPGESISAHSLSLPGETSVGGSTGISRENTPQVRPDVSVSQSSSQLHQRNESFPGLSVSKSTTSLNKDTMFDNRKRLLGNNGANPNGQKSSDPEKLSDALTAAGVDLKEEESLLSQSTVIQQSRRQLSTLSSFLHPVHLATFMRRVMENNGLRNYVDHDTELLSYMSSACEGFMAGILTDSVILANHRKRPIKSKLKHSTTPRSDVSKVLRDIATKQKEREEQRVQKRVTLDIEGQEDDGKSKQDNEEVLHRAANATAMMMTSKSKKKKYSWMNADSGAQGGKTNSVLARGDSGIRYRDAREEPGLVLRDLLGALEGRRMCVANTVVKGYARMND

[7] = target: T2, Taf8, subunit of Komagataella phaffii …; assay: as above; settings: both partners purified

B1: Taf9, subunit of Komagataella phaffii TFIID (natural protein, UniProt F2QTW3 1-153, looked up)
chain: MTNEQAAIPRDVRLLHLIFATQNIYSYQDHVPLQLMDFAYRYTTGTLQDATIYSDHAHASGSHISNAGNAGTNAQLTTEDIRLAIAARTNYQFKPVPPKELLLELAAERNKKPLPAVIPTWGIRLPPEKYCLTGKDWVLEDEEEAVSYKKRKT
notes: Taf9, TFIID subunit of the yeast Komagataella phaffii (formerly Pichia pastoris); histone-fold domain modelled in the cryo-EM map; source: endogenous, K. phaffii nuclear extract; co-purified in TFIID by SBP-tagged Taf2 (streptavidin beads, sucrose gradient)
binding result [1]: binds
binding result [2]: binds

Binder: B3
binding result [5]: binds
binding result [6]: binds
binding result [2]: binds

Next, values leading:

binding result [3]: binds
binding result [4]: binds
B2: Taf14, subunit of Komagataella phaffii TFIID (natural protein, UniProt F2QLE3 1-247, looked up)
chain: MSDLKRTVRITTTQNVLKDIPPIEKGFPMRKWSISVSLLNDQGKEIPATIFDKVTYHLHPTFENPVRVFKQPPFKIEEQGWGEFDMKIALTIAEKGGERKISHDLNFLKEKYIVDHVISVPTNKPGLLALLAESGPVPSSEGATTPGLSSVTEKRKTSLVGDVKAKKVKTSSGAVKGGVDLEKLADGLTKLSEDDLLGVVQMVTDNRSPEMNIKNDVDEGEFTMDLYSLPDSLLKSLWEYVKKHADV
notes: Taf14, yeast-specific TFIID subunit of Komagataella phaffii (formerly Pichia pastoris); YEATS domain docked in the Taf2 lobe of the cryo-EM map; source: endogenous, K. phaffii nuclear extract; co-purified in TFIID by SBP-tagged Taf2 (streptavidin beads, sucrose gradient)

binding result [7]: binds
B4: Taf10, subunit of Komagataella phaffii TFIID (natural protein, UniProt F2QLJ9 1-217, looked up)
chain: MSTEKLFEDLDEDSLMQDVEGGVEGSMTIEEEPEPNDEKEAPHISMPSLPEYTRKDKTLEEILEMMEDEEFTPIIPDAVTDYYLAKNGFETSDIKIKRILALATQKFISDIAQDAYEYSRIRSSSSVYTSANPQARARQLVAGQQQQQQQQPQQQQQQQPQTGASQPAPTVGGSGGGGGGGGGTSTGTNNKVVLTMDDLRSALGEYGINVKRPNFYR
notes: Taf10, TFIID subunit of the yeast Komagataella phaffii (formerly Pichia pastoris); source: endogenous, K. phaffii nuclear extract; co-purified in TFIID by SBP-tagged Taf2 (streptavidin beads, sucrose gradient)

Source: paper PMC6220335, “Molecular structure of promoter-bound yeast TFIID” (Nature Communications, 2018)
